{
  "source": "paper PMC11411725",
  "binders": {"B1": {"name": "CCL17 (CC chemokine ligand 17, TARC), wild type, Q92583 24-94 (ligand)", "chain": "ARGTNVGRECCLEYFKGAIPLRKLKTWYQTSEDCSRDAIVFVTVQGRAICSDPNNKRVKNAVKYLQSLERS"}},
  "biological_target": "vCCI (viral CC chemokine inhibitor), wild type, from rabbitpox (rabbitpox), O10647",
  "test": "SEC-MALS",
  "conditions": "remark: other sources report otherwise",
  "data": [
    {"binder": "B1", "values": [
      {"measurement": "stoichiometry N", "value": 1}
    ]}
  ]
}
